{"source": "patent US20240067683A1", "about": "“USE OF MCM8-CGAS-STING-IFN-I SIGNAL PATHWAY AS DISEASE TARGET” (Guangzhou Women and Children's Medical Center, priority 2020, published 2024)", "molecules": {"B1": {"name": "MCM8: Full-length MCM8 protein (SEQ ID NO: 2), overexpressed in cells (protein, listed as Homo sapiens)", "chain": "MNGEYRGRGFGRGRFQSWKRGRGGGNFSGKWREREHRPDLSKTTGKRTSEQTPQFLLSTKTPQSMQSTLDRFIPYKGWKLYFSEVYSDSSPLIEKIQAFEKFFTRHIDLYDKDEIERKGSILVDFKELTEGGEVTNLIPDIATELRDAPEKTLACMGLAIHQVLTKDLERHAAELQAQEGLSNDGETMVNVPHIHARVYNYEPLTQLKNVRANYYGKYIALRGTVVRVSNIKPLCTKMAFLCAACGEIQSFPLPDGKYSLPTKCPVPVCRGRSFTALRSSPLTVTMDWQSIKIQELMSDDQREAGRIPRTIECELVHDLVDSCVPGDTVTITGIVKVSNAEEGSRNKNDKCMFLLYIEANSISNSKGQKTKSSEDGCKHGMLMEFSLKDLYAIQEIQAEENLFKLIVNSLCPVIFGHELVKAGLALALFGGSQKYADDKNRIPIRGDPHILVVGDPGLGKSQMLQAACNVAPRGVYVCGNTTTTSGLTVTLSKDSSSGDFALEAGALVLGDQGICGIDEFDKMGNQHQALLEAMEQQSISLAKAGVVCSLPARTSIIAAANPVGGHYNKAKTVSENLKMGSALLSRFDLVFILLDTPNEHHDHLLSEHVIAIRAGKQRTISSATVARMNSQDSNTSVLEVVSEKPLSERLKVVPGETIDPIPHQLLRKYIGYARQYVYPRLSTEAARVLQDFYLELRKQSQRLNSSPITTRQLESLIRLTEARARLELREEATKEDAEDIVEIMKYSMLGTYSDEFGNLDFERSQHGSGMSNRSTAKRFISALNNVAERTYNNIFQFHQLRQIAKELNIQVADFENFIGSLNDQGYLLKKGPKVYQLQTM", "modifications": "Flag or HA tag"}, "B2": {"name": "MCM8 (A276P): MCM8 with point mutation A276P in the LIR motif, found in Kawasaki disease patients (protein)", "chain": "B1 chain with A276P"}, "B3": {"name": "MCM8 (S280C): MCM8 with point mutation S280C (protein, listed as Homo sapiens)", "chain": "B1 chain with S280C"}}, "key": {"[1]": {"tested_on": "mitochondrial DNA in cytoplasm", "test": "Cytoplasmic DNA source by Q-PCR after nuclear-cytoplasmic separation in THP-1 cells", "format": "cell-based, human", "details": "control THP-1 cells treated with Mdivi, with or without SeV or LPS; similar to MCM8 knockdown", "excerpt": "Therefore, in order to explore whether DNA is produced in cytoplasm and the source, the inventors further knocked down MCM8 in THP-1 cells by transfection with MCM8-specific siRNA and stimulated the cells with SeV or poly(dA:dT). The stimulated cells were subjected to nuclear-cytoplasmic separation (Beyotime nuclear protein and cytoplasmic protein extraction kit was used for the nuclear-cytoplasmic separation herein, and the operation followed the instructions, the same below), and the cytoplasmic DNA was extracted for detecting the source of cytoplasmic DNA by qPCR.\nFurthermore, the MCM8-knockdown THP-1 cells were stimulated or not stimulated with SeV and LPS, respectively, and treated with or without the mitophagosome formation inhibitor Mdivi, and the cytoplasmic DNA was extracted, and the content of mitochondrial DNA in cytoplasm and the expressions of IFNα and IFNβ were detected by Q-PCR."}, "IFNα and IFNβ": {"tested_on": "IFNα and IFNβ", "test": "Expression of IFNα and IFNβ by Q-PCR in THP-1 cells treated with mitophagosome formation inhibitor Mdivi", "format": "cell-based, human", "details": "control THP-1 cells treated with Mdivi, with or without SeV or LPS; similar to MCM8 knockdown"}, "IFN-I": {"tested_on": "IFN-I", "test": "IFN-I in MCM8-knockdown THP-1 cells stimulated with SeV, with CsA or EtBr (mitochondrion-free p0 cells) treatment", "format": "cell-based, human", "details": "mitochondrion-free p0 THP-1 cells from EtBr treatment", "procedure": "(§1) To further verify the mechanism of MCM8-cGAS-STING pathway, the inventors knocked down MCM8 in THP-1 cells, stimulated the cells with SeV, and then treated the cells with MTP complex pore inhibitor cyclosporine A (CsA) ([…]) to inhibit the release of mitochondrial DNA. […] The results were similar when the mitochondria in the cells were removed by EtBr treatment. The process was as follows: THP-1 cells were treated with EtBr to completely remove the mitochondrial DNAs in the cells to construct mitochondrion-free p0 cells, MCM8 was knocked down in normal THP-1 or p0 THP-1, the cells were then stimulated with SeV, the expressions of IFN-α and IFN-β were detected by Q-PCR, and the level of pIRF3 (IRF3 protein activated by phosphorylation) was detected by western blot. […] In Panel D, four columns are taken as a group and represent, from left to right, ctrl siRNA blank control group, MCM8 siRNA control group, ctrl siRNA group of mitochondrion-free cells, and MCM8 siRNA group of mitochondrion-free cells. […] On the contrary, drugs that inhibits or eliminats mtDNA can block the function of MCM8 in regulating IFN-I, and MCM8-knockdown activates cGAS-STING-IFN-I signaling pathway by increasing the amount of cytoplasmic mtDNA."}, "pIRF3": {"tested_on": "pIRF3", "test": "pIRF3 level by western blot in normal or p0 THP-1 cells, MCM8 knockdown, SeV stimulation", "format": "cell-based, human", "details": "mitochondrion-free p0 THP-1 cells from EtBr treatment", "procedure": "as §1"}, "MCM8 [2]": {"tested_on": "MCM8", "test": "Nuclear export of MCM8 detected by nuclear-cytoplasmic separation", "format": "cell-based", "procedure": "The cells were treated with leptomycin B, a nuclear export inhibitor, to inhibit the protein shuttle out of the nucleus, and the expressions of MCM8 in the cytoplasm (cyto) and the nucleus (nuc) were respectively detected by nuclear-cytoplasmic separation. […] It could be seen that ubiquitination was essential for the nuclear export of MCM8. […] (see Panel f, FIG. 12)."}, "MCM8 [3]": {"tested_on": "MCM8", "test": "TRIM21-mediated ubiquitination of MCM8", "format": "cell-based"}, "IFN-β": {"tested_on": "IFN-β", "test": "IFN-β mRNA level by Q-PCR in 293T cells overexpressing MCM8 or its mutants, stimulated with poly(dA:dT)", "format": "cell-based", "details": "200 ng overexpressed", "procedure": "Besides the previously found A276P and S365N mutations, the inventors found other point mutations related to Kawasaki disease, namely, S280C mutation and S764A mutation, and further conducted cloning and cell experiments, comprising the steps of using 293T cells to separately overexpress 200 ng MCM8, and each of mutants, namely, MCM8 (A276P), MCM8 (S280C), MCM8 (S365N) and MCM8 (S764A); and 24 hours after transfection, stimulating the cells with poly(dA:dT) for 0, 12 and 24 h, collecting RNA, and detecting the mRNA level of IFN-β by Q-PCR. […] Therefore, it can be further considered that the previously found mutations A276P and S365N in MCM8 are both mutation factors that affect the function of MCM8 in regulating IFN-I and lead to Kawasaki disease, while the mutations S280C and S764A are also newly discovered mutations in systemic vasculitis such as Kawasaki disease. These two mutations may be used to diagnose or assist in the diagnosis of Kawasaki disease and systemic vasculitis diseases similar to Kawasaki disease (e.g., systemic lupus erythematosus)."}, "LC3": {"tested_on": "LC3", "test": "Binding of full-length, truncated and point-mutated MCM8 to LC3", "excerpt": "Proteins that directly bind to LC3 generally have a LIR motif, the inventors, when predicting with website whether MCM8 has a LIR motif, find that the sequence between the sites MCM8 272-277 is LIR motif. According to the functional domain of MCM8, the inventors constructed truncated mutants in various truncated forms of MCM8 and detected the results of the binding thereof to LC3.\nBy means of 3D structure prediction, the binding of MCM8 LIR motif to LC3 was simulated (see Panels C and D, FIG. 5)."}, "mitochondrial LC3": {"tested_on": "mitochondrial LC3", "test": "Western blot of mitochondrial LC3 and mitochondrial proteins in Hela cells overexpressing MCM8", "format": "cell-based", "details": "with or without LPS or SeV, vs EV control", "excerpt": "Based on the findings in Embodiment 6, MCM8 is related to the amount of cytoplasmic mtDNA and cGAS-STING-IFN-I signaling pathway, while the amount of mtDNA is related to mitophagy, and therefore, the experiment was further carried out as follows. Experiment of MCM8-knockdown inhibiting mitophagy-related proteins: in MCM8-knockdown THP-1 cells, detection indicators related to mitophagy were studied. The cells were stimulated or not stimulated with LPS and SeV, respectively, and the expressions of mitochondrial LC3 and other mitochondrial proteins TOM20, MFN2, PINK1 and COXIV were detected by western blot. It was found from the results that, compared with the control group (Ctrl siRNA), MCM8-knockdown could inhibit the activation of mitochondrial LC3 and increase the amounts of mitochondrial proteins (TOM20, MFN2, PINK1, and COXIV) (see Panel A, FIG. 4). Correspondingly, MCM8 (Flag-MCM8) was overexpressed in Hela cells, the cells were stimulated or not stimulated with LPS and SeV, respectively, and the expressions of mitochondrial LC3 and other mitochondrial proteins (TOM20, MFN2, PINK1, and COXIV) were detected by western blot."}, "TRIM21": {"target": "T1, TRIM21 (Homo sapiens, UniProt P19474)", "T1 construct": "Flag; expressed in transfected cells; host or cells: HeLa", "T1 sequence (P19474 whole entry)": "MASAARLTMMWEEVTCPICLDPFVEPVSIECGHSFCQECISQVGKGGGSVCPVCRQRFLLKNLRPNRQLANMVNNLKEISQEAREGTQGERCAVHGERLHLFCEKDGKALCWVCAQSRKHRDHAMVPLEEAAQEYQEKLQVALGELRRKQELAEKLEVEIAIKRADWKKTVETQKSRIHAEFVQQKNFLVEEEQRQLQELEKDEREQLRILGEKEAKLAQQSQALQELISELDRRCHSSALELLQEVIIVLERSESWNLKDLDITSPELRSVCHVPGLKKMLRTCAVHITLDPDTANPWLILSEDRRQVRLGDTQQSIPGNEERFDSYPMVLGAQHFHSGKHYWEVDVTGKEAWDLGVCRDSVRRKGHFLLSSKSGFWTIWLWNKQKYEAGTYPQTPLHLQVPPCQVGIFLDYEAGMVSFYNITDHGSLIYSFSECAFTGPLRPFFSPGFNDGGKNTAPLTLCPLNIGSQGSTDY", "test": "Co-immunoprecipitation of Flag-TRIM21 and HA-MCM8 in HeLa cells", "format": "binding", "excerpt": "Further, HeLa cells were transfected with Flag-TRIM21 and HA-MCM8 and subjected to co-immunoprecipitation analysis."}, "[4]": {"details": "stimulation with LPS and poly(dA:dT)"}}, "note": "Numbering of substitutions follows the chain as printed. In names and notes the source's numbering stands."}
{"molecule": "COc1cc(-n2c(=S)[nH]c3ccccc3c2=O)c(Cl)cc1Cl", "note": "[Mdivi]", "values": [{"measurement": "mtDNA aggregation in cytoplasm (Q-PCR)", "setting": "[1]", "result": "mtDNA aggregation"}, {"measurement": "expression levels of IFNα and IFNβ", "setting": "IFNα and IFNβ", "result": "increase in the expression levels of IFNα and IFNβ"}]}
{"molecule": "CC[n+]1c(-c2ccccc2)c2cc(N)ccc2c2ccc(N)cc21.[Br-]", "note": "[EtBr]", "values": [{"measurement": "function of MCM8 in regulating IFN-I (IFN-α and IFN-β expression, Q-PCR)", "setting": "IFN-I", "result": "blocked"}, {"measurement": "expression of pIRF3 protein", "setting": "pIRF3", "result": "significantly inhibited"}]}
{"molecule": "NS(=O)(=O)OC[C@H]1C[C@@H](Nc2ccnc3cc(-c4cccc(SC(F)(F)F)c4)nn23)[C@H](O)[C@@H]1O", "note": "[TAK-243]", "values": [{"measurement": "nuclear export of MCM8", "setting": "MCM8 [2]; [4]", "result": "obviously inhibited"}]}
{"molecule": "CCC(=C/[C@H](C)C/C=C/C(C)=C/[C@@H](C)C(=O)[C@@H](C)[C@H](O)[C@@H](C)C/C(C)=C/C(=O)O)/C=C/[C@@H]1OC(=O)C=C[C@@H]1C", "note": "[leptomycin B]", "values": [{"measurement": "nuclear export of MCM8", "setting": "MCM8 [2]; stimulation with SeV and LPS", "result": "significantly inhibited"}]}
{"molecule": "CC(=N)NCc1cccc(CN)c1", "note": "[1400W]", "values": [{"measurement": "nuclear export of MCM8", "setting": "MCM8 [2]; [4]", "result": "inhibited"}, {"measurement": "ubiquitination of MCM8 mediated by TRIM21", "setting": "MCM8 [3]", "result": "significantly inhibited"}]}
{"molecule": "B1", "values": [{"measurement": "IFN-β level (mRNA, Q-PCR)", "setting": "IFN-β; poly(dA:dT) 0 h", "result": 0}, {"measurement": "IFN-β level (mRNA, Q-PCR)", "setting": "IFN-β; poly(dA:dT) 12 h", "result": 100}, {"measurement": "IFN-β level (mRNA, Q-PCR)", "setting": "IFN-β; poly(dA:dT) 24 h", "result": 250}, {"measurement": "direct binding to LC3", "setting": "LC3; mass spectrometry experiments", "result": "could directly bind to LC3"}, {"measurement": "activation of LC3", "setting": "mitochondrial LC3", "result": "promoted the activation of LC3 more obviously"}, {"measurement": "mitochondrial proteins (TOM20, MFN2, PINK1, COXIV)", "setting": "mitochondrial LC3", "result": "inhibited the increase of mitochondrial proteins"}, {"measurement": "binding to TRIM21 upon stimulation", "setting": "TRIM21; LPS or poly(dA:dT)", "result": "the binding increased"}, {"measurement": "binding to E3 ubiquitin ligase TRIM21", "setting": "TRIM21; co-immunoprecipitation", "result": "could bind"}]}
{"molecule": "B2", "values": [{"measurement": "binding to LC3", "setting": "LC3; MCM8 constructs with or without LIR motif", "result": "greatly reduced"}]}
{"molecule": "B3", "values": [{"measurement": "IFN-β level (mRNA, Q-PCR)", "setting": "IFN-β; poly(dA:dT) 24 h", "result": "below 250"}]}
